{
  "source": "paper PMC4274662",
  "about": "“A novel cytosolic NADH:quinone oxidoreductase from Methanothermobacter marburgensis” (Bioscience Reports, 2014)",
  "format_in_all_cases": "biochemical, Methanothermobacter marburgensis",
  "key": {"purified protein [1]": {"substrate": "NC(=O)C1=CN([C@@H]2O[C@H](COP(=O)(O)OP(=O)(O)OC[C@H]3O[C@@H](n4cnc5c(N)ncnc54)[C@H](OP(=O)(O)O)[C@@H]3O)[C@@H](O)[C@H]2O)C=CC1", "assay": "purified protein", "details": "1 mM coenzyme Q1 as acceptor, 50 mM Mops pH 7.4, 30°C"}, "purified protein [2]": {"substrate": "NC(=O)C1=CN([C@@H]2O[C@H](COP(=O)(O)OP(=O)(O)OC[C@H]3O[C@@H](n4cnc5c(N)ncnc54)[C@H](O)[C@@H]3O)[C@@H](O)[C@H]2O)C=CC1", "assay": "purified protein", "details": "1 mM coenzyme Q1 as acceptor, 50 mM Mops pH 7.4, 30°C"}, "[3]": {"substrate": "CN(C)c1ccc(N=Nc2ccccc2C(=O)O)cc1", "assay": "reduction with electron donor, absorbance", "details": "electron acceptor, donor not stated (presumably NADH), varied substrate not stated, general method varies the donor, 50 mM Mops pH 7.4, 30°C"}},
  "data": [
    {"protein": "MmNQO (Methanothermobacter marburgensis str. Marburg) (protein, full length 196 residues, N-terminal MAS added, non-cleavable C-terminal His6 tag (EHHHHHH) kept; pET21, E. coli BL21(DE3); 23538 Da; homodimer with FMN) MHVYILFAHPSRKSFSREVLEAFTEGLSEAGHTYEVGDLYRMNFRSELSQEEYLREISQEAGSPLPEDVMEEHERIGRADALAFIYPLWWSDCPAKLKGWFDRVWTYGYAYFYEDGERGTRIDIEKAVVLCSAGHTEEDLEGTGIAESMRSVMLGDRLLGVGVKNVTMEILGGMVPGDDSCREINLMRARRAGRNL", "values": [
      {"measurement": "Km", "setting": "purified protein [1]", "value": 111.6, "unit": "µM"},
      {"measurement": "kcat", "setting": "purified protein [1]", "value": 0.243, "unit": "s⁻¹"},
      {"measurement": "kcat/Km", "setting": "purified protein [1]", "value": 2170, "unit": "M⁻¹ s⁻¹"},
      {"measurement": "Km", "setting": "purified protein [2]", "value": 96.8, "unit": "µM"},
      {"measurement": "kcat", "setting": "purified protein [2]", "value": 0.26, "unit": "s⁻¹"},
      {"measurement": "kcat/Km", "setting": "purified protein [2]", "value": 2680, "unit": "M⁻¹ s⁻¹"},
      {"measurement": "Km", "setting": "[3]", "value": 683, "unit": "µM"},
      {"measurement": "kcat", "setting": "[3]", "value": 0.106, "unit": "s⁻¹"}
    ]}
  ]
}
